Experimental findings from article PMC9067669, “Allostery in the dynamic coactivator domain KIX occurs through minor conformational micro-states” (PLoS Computational Biology, 2022) are described below.

Non-standard residues stand in square brackets, D forms with d. pS = N[C@@H](COP(=O)(O)O)C(=O)O

The target in data set [1] is T1, KIX domain from mouse CBP, residues 586-672 (mouse, UniProt P45481 586-672).
T1 construct: the pRSETB vector may add further residues beside the His tag (surmise); also called apo KIX; Apo KIX(586-672); source: E. coli BL21 DE3, purified (HisTrap Ni IMAC, Source S ion exchange)
T1 sequence (P45481 586-672): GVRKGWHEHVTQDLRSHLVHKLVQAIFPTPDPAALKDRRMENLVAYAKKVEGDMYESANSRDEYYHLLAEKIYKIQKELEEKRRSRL
The data set can be described thus: differential scanning fluorimetry (DSF); 20 uM protein with 5X SYPRO orange, incubated with 1X TAD peptide at RT for 30 minutes; 25-95°C at 1°C/min; Tm is the maximum of the first derivative, dTm the difference between protein and protein + ligand. Particulars: both partners purified. In general terms: In DSF a fluorescence change marks the thermal transition of the protein.

Data set [2] deals with T2, KIX_(I660V) (KIX domain from mouse CBP, residues 586-672, I660V) (mouse, UniProt P45481 586-672, I660V).
T2 construct: also called mutant KIX_(I660V); K_(I660V); source: E. coli BL21 DE3, purified (HisTrap Ni IMAC, Source S ion exchange)
T2 sequence (P45481 586-672 I660V): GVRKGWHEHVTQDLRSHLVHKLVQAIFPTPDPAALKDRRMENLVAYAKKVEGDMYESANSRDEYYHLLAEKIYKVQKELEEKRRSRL
Described as above. Conditions: both partners purified.

B1: MLL(840-858) peptide (peptide)
peptide: Ac-DCGNILPSDIMDFVLKNTPY-NH2
notes: mixed lineage leukemia (MLL) transcription factor peptide, printed residues 840-858; last printed letter of the peptide, beyond the 19 residues of the stated range; source: synthetic peptide (HPLC purified, reduced with DTT, 98% purity)
In the case of B1, the “increase in TM” value in data set [1] turned out to be 0.8 °C.

B2: pKID(119-147) peptide, phosphorylated kinase-inducible domain of CREB (peptide)
peptide: Ac-TDSQKRREILSRRP[pS]YRKILNDLSSDAPG-NH2
SMILES: CC[C@H](C)[C@H](NC(=O)[C@H](CCCCN)NC(=O)[C@H](CCCNC(=N)N)NC(=O)[C@H](Cc1ccc(O)cc1)NC(=O)[C@H](COP(=O)(O)O)NC(=O)[C@@H]1CCCN1C(=O)[C@H](CCCNC(=N)N)NC(=O)[C@H](CCCNC(=N)N)NC(=O)[C@H](CO)NC(=O)[C@H](CC(C)C)NC(=O)[C@@H](NC(=O)[C@H](CCC(=O)O)NC(=O)[C@H](CCCNC(=N)N)NC(=O)[C@H](CCCNC(=N)N)NC(=O)[C@H](CCCCN)NC(=O)[C@H](CCC(N)=O)NC(=O)[C@H](CO)NC(=O)[C@H](CC(=O)O)NC(=O)[C@@H](NC(C)=O)[C@@H](C)O)[C@@H](C)CC)C(=O)N[C@@H](CC(C)C)C(=O)N[C@@H](CC(N)=O)C(=O)N[C@@H](CC(=O)O)C(=O)N[C@@H](CC(C)C)C(=O)N[C@@H](CO)C(=O)N[C@@H](CO)C(=O)N[C@@H](CC(=O)O)C(=O)N[C@@H](C)C(=O)N1CCC[C@H]1C(=O)NCC(N)=O
notes: kinase-inducible domain of CREB, residues 119-147, phosphorylated; source: synthetic peptide (HPLC purified, >90% purity)
In the case of B2, the binding result in data set [1] and in data set [2] was “binds” in each case.
